Sequences and labels used below:
B1: SWA9 (antibody, V domains shown)
VH: QMQLVQSGPEVKKPGTSVKVSCKASGFTFTNSAMQWVRQARGQRLEWVGWIVVASGNANSARRFHDRVTITSDMSTSTAYLELSSLRSEDTAVYYCALNHCSNTTCLDGFDIWGQGTMVSVSS
VL: EIVLTQSPVTLSLSPGERATLSCRASQSVRNSLLAWYQQKPGQAPRLLIYAASSRATGIPDRFSGSGSGTDFTLTISRLEPEDFVVYYCQQHGSSPPWTFGQGTKVEFK
B2: 2YYQH9 (antibody, V domains shown)
VH: EVQLVESGGGLIQPGGSLRLSCAASGVTVIRNYMTWVRQAPGKGLEWVSVIYPGGTTYYADSVKGRFTISRDSSKNTLYLQMNSLRAEDAAVYFCARAYGDYYFDLWGQGTLLTVSS
VL: EMVMTQSPASLSLSPGERATLSCRASQGVDSSYLAWYQQKPGQAPRLLMYGASSRATGIPDRFSGSGYGTDFTLTISRVEPEDFAVYYCQVAFTFGQGTKVEIK
B3: SWC11 (antibody, V domains shown)
VH: EVQLVESGGGLIQPGGSLRLSCAASEFIVSRNYMSWVRQAPGTGLEWVSVIYPGGSTFYADSVKGRFTISRDNSKNTLYLQMDSLRVEDTAVYYCARDYGDFYFDYWGQGTLVTVSS
VL: EIVMTQSPVSLSVSPGERATLSCRASQGVASNLAWYQQKAGQAPRLLIYGASTRATGIPARFSGSGSGTEFTLTISTLQSEDSAVYYCQQYNDRPRTFGQGTKLEIK

Where only a bound is given, the exact number is not on record here.

In general, Kd refers to the free concentration of one partner at which half of the binding sites on the other are occupied at equilibrium, for simple one-to-one binding.

The first assay addresses T1, SARS-CoV-2 prototype RBD-His tag protein (Severe acute respiratory syndrome …, UniProt P0DTC2). In words: cell-based or functional assay.
For B1, the “neutralisation of SARS-CoV-2 prototype pseudovirus, IC50” value (“neutralisation” below) was less than 0.1 µg/mL.

Take B2: the “neutralisation” value is less than 0.1 µg/mL.

Take B3: the “neutralisation” value is less than 0.1 µg/mL.

Another assay concerns the target T1, SARS-CoV-2 prototype RBD-His tag protein. As to the kind of experiment: SPR.
Turning to B1, the Kd came out at 0.345 nM.

In turn, B2 yielded a Kd of 0.428 nM.

For B3, binding was characterised by a dissociation constant (Kd) of 0.627 nM.

These data come from publication PMC11844185 (Journal of Translational Medicine, 2025).
